Experimental data reported in article PMC11147780, “Vaccination induces broadly neutralizing antibody precursors to HIV gp41” (Nature Immunology, 2024).

T1: 10E8-GT10.2 epitope scaffold (designed scaffold 10E8-GT10.2 with …, N-linked glycosylation sites added (positions not given))
T1 chain: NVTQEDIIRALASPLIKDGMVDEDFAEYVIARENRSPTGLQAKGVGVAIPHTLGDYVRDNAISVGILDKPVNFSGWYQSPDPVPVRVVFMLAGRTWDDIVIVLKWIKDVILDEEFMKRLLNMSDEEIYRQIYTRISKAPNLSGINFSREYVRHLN

T2: 10E8-B1 epitope scaffold (synthetic construct (resurfaced …))
T2 chain: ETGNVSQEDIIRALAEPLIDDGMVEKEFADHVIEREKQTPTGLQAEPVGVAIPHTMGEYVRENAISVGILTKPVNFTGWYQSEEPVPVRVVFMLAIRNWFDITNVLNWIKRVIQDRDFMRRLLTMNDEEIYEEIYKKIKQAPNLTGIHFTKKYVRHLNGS

T3: 10E8-GT10.1 epitope scaffold (synthetic construct, circularly …, N-linked glycosylation sites added (positions not given))
T3 chain: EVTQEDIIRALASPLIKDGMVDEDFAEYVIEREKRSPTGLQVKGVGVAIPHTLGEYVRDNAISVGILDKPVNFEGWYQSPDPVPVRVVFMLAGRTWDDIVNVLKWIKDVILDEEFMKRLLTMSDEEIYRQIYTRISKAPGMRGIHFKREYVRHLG


Key:
[1] = target: T1, 10E8-GT10.2 epitope scaffold
10E8-B1 epitope scaffold = target: T2, 10E8-B1 epitope scaffold
[2] = target: T3, 10E8-GT10.1 epitope scaffold

| Binder | Kd [1] [µM] | Kd (10E8-B1 epitope scaffold) [µM] | Kd [2] [µM] |
| --- | --- | --- | --- |
| NHP-10E8_MPER-GT10v55_W3-20 (antibody, V domains shown) VH: EVQLVESGGGLVQPGGSLRLSCAASGFSFSNYWMSWVRQAPGKGLEWVGFIKNKADGGTAAYAESVKGRFTISRDDSKNTLYLQMNSLKTEDTAVYFCARDLGRYNFWSAFYSQNRFDVWGPGVLVTVSS VL: SYEVTQPPSVSVSPGQMARITCGGDNLGSKYVHWYQQKPAQAPVMVMYDDSERPSGIPERFSGSKSGNTATLTISGVEAGDEADYYCQVWDSSSDHPLFGGGTRLTV | 0.00482 | 4.27 | – |
| NHP-Comp_MPER-GT10v55_W21-08 (antibody, V domains shown) VH: EVQLVESGGGLVQPGGSLRLSCAASGFTFSHYGLHWVRQAPGKGLEWVAVIWSDGNKKYYADSVKDRFTISRDNSKNMLYLQMNNLKLEDTAVYYCATYTYGDWGQGVLVTVSS VL: SYELTQPPSVSVSPGQMARITCGGDNLGSKYVHWYQQKPPQAPVLVIYDDSERPSGIPERFSGSKSGNTATLTISGVEAGDEADYYCQVWDSSSDNWVFGGGTRLTV | 0.0151 | – | – |
| MPER-072 (antibody, V domains shown) VH: QVQLQESGSGLVKPSQTLSLTCAVSGGSISSGGYSWSWIRQPPGKGLEWIGYIYHSGSTYYNPSLKSRVTISVDRSKNQFSLKLSSVTAADTAVYYCARAGHNYDFWSGYYPVGGAFDIWGQGTMVTVSS VL: not shown | 16 | – | 13 |
| MPER-053 (antibody, V domains shown) VH: EVQLVESGGGLVQPGRSLRLSCTASGFTFGDYAMSWFRQAPGKGLEWVGFIRSKAYGGTTEYAASVKGRFTISRDDSKSIAYLQMNSLKTEDTAVYYCTREGAYYDFWSGYLTKVYGMDVWGQGTTVTVSS VL: not shown | 7.9 | – | 11 |
| MPER-063 (antibody, V domains shown) VH: QVQLVQSGAEVKKPGSSVKVSCKASGGTFSSYAISWVRQAPGQGLEWMGGIIPIFGTANYAQKFQGRVTITADESTSTAYMELSSLRSEDTAVYYCARGGTHYDFWSGYSDYYYGMDVWGKGTTVTVSS VL: not shown | 6.6 | – | 4 |
| MPER-073 (antibody, V domains shown) VH: QVQLQESGPGLVKPSQTLSLTCTVSGGSISSGGYYWSWIRQHPGKGLEWIGYIYYSGSTYYNPSLKSRVTISVDTSKNQFSLKLSSVTAADTAVYYCARDCAVYDFWSGYGPGGWFDPWGQGTLVTVSS VL: not shown | 20 | – | 7.3 |
| NHP-Comp_MPER-GT10v55_W21-04 (antibody, V domains shown) VH: DVQLVESGGGLVKPGGSLRLSCVASDFTFSSYEMHWVRQAPGKGLEWVSLISESGDTTYYADSVKGRFTISRDNAKNSLFLQMNSLRAEDTAVYYCTRAITVFGVVITHFDYWGQGVLVPVSS VL: QSALTQPPSVSKSLGQSVTISCTGTSSDIGGYYAVSWYQQHSGTAPRLLIYEVSKRPSGVSDRFSGSKSGNTASLTISGLQAEDEADYYCGSFRTGYTYIFGAGTRLTV | 0.0156 | – | – |
| MPER-055 (antibody, V domains shown) VH: not shown VL: DIQMTQSPSSLSASVGDRVTITCRASQGIRNDLGWYQQKPGKAPKRLIYAASSLQSGVPSRFSGSGSGTEFTLTISSLQPEDFATYYCLQHNSYPLSFGGGTKVEIK | 22 | – | 16 |
| MPER-070 (antibody, V domains shown) VH: QVQLQESGPGLVKPSETLSLTCTVSGGSISSSSYYWGWIRQPPGKGLEWIGSIYYSGSTYYNPSLKSRVTISVDTSKNQFSLKLSSVTAADTAVYYCARHHPHAYDFWSGYYSERYYFDYWGQGTLVTVSS VL: not shown | 13 | – | 4.1 |
| NHP-10E8_MPER-GT10v55_W26-05 (antibody, V domains shown) VH: EVQLVESGGGLVQPGGSLRLSCAASGFTFSNYWMNWVRQAPGKGLEWVGFIKNKADGGTAAYAESVKGRFTISRDDSKNTLYLQMNSLKTEDTAVYYCTREATFYNFWSGYYTPQYGLDSWGQGVVVTVSS VL: QPVLTQPTSLSASPGASARLTCTLSSGISVGSYRIFWYQQKPGSPPRYLLNYHTDSDKHQGSGVPSRFSGSKDASANAGILLISGLQSEDEADYYCMIWHNNAHGLFGGGTRLTV | 0.263 | 9.68 | – |
| NHP-10E8_MPER-GT10v55_W26-03 (antibody, V domains shown) VH: QVQLQESGPGVVKPSETLSLTCAVSGGSISDNYWWTWIRQPPGKGLEWIGYIYGSNTSTNYNPSLKSRVTISKDTSKNQFSLKLSSVTAADTAVYYCARDREFYNFWSGYYGAYGLDSWGQGVVVTVSS VL: QPVLTQPTSLSASPGASARLSCTLSSGINVGSYSIYWYQQKPGSPPRYLLYYDSDSNKHQGSGVPSRFSGSNDASANAGLLLISGLQSEDEADYYCAIWHSSTYYIFGGGTRLTV | 0.000178 | 0.84 | – |
| NHP-Comp_MPER-GT10v55_W21-07 (antibody, V domains shown) VH: EVQLVESGGGLAKPGGSLRLSCAASGFTFSSYWMNWVRQTPGKGLEWISAINSGGGSTYYADSVKGRFTISRDNSKNTLSLQMNSLRAEDTAVYYCAKGYGLDSWGQGVVVTVSS VL: QAAPTQPPSVSGSPGQSVTISCTGTSSDIGYYNAVSWYQQHPGKAPKLMIYEVSKRPSGVSDRFSGSKSGNTASLTISGLQAEDEADYYCSSYAGSNTFIFGAGTRLTV | 5.51 | – | – |
| NHP-Comp_MPER-GT10v55_W26-11 (antibody, V domains shown) VH: EVQLVESGGGLAKPGGSLRLSCAASGFTFSNYWMCWVRQAPGKGLEWISVINSVTSGTYYADSVKGRFTISRENAKNTLYLQMDRLRVEDTAVYYCAWGLGLTAPPVYWGQGVLVTVSS VL: ETVVTQEPSLSVSPGGTVTLTCGLSSGSVSTSNYPSWYQQTPGQAPRTLVYRTNIRPSGVPDRFSGSILGNKAALTITGAQADDESDFYCLFYMGSGIWVFGGGTRLTV | 0.0128 | – | – |
| NHP-Comp_MPER-GT10v55_W26-04 (antibody, V domains shown) VH: QVQLQESGPGVVKPSETLSLTCAVSGDSISDSYWWSWIRQPPGKGLEWIGYIYGSSTNTNYNPSLKSRVTISKDTSKNQFSLKLSSVTAADTAVYYCARESRWLEEYPLNTFDYWGQGVLVTVSS VL: DIVMTQTPLSLPVTPGEPASISCRSSQSLLDSYGYIHLHWYLQKPGQSPQLLIYLGSNRASGVPDRFSGSGSGTDFTLKISRVEAEDVGVYYCMQTLQTPRTFGQGTKVEIK | 0.0208 | – | – |
| MPER-068 (antibody, V domains shown) VH: QVQLQESGPGLVKPSETLSLTCTVSGGSISSYYWSWIRQPPGKGLEWIGYIYYSGSTNYNPSLKSRVTISVDTSKNQFSLKLSSVTAADTAVYYCARSPSPYYDFWSGYFQETNWFDPWGQGTLVTVSS VL: not shown | 2.1 | – | 0.7 |
| NHP-Comp_MPER-GT10v55_W26-02 (antibody, V domains shown) VH: QLQLQESGPGLVKPSETLSVTCAVSGGSISGGYGWSWIRQPPGKGLEWIGHIFDSFGNTYYNPSLKSRVTISTDTSKNQFSLKLSSVTAADTAVYYCARETVLGAGDYFDSWGQGVLVTVSS VL: DIQMTQSPSSLSASVGDTVTITCRASQDINNYLAWYQQKPGKAPKPLIYHASYLESGVPSRFSGSGSGTDFTLTISSLQPEDFAIYYCQQHNAYPFTFGPGTKLDIK | 0.00318 | – | – |
| NHP-10E8_MPER-GT10v55_W21-04 (antibody, V domains shown) VH: EVQLVESGGGLVQPGGSLRLSCVASGFTFSDYGFDWVRQAPGKGLEWVGFIRSKDYGGSTEYAASVKGRFTISRDDSKNTAYLQMTSLKAEDTAVYFCTRDLGFYNFWTGYYEVNRFDVWGAGVLVTVSS VL: QPVLTQPTSLSASPGASARLTCTLRSGISVGSYRIFWYQQKPGSPPRYLLNYHTDSDNHQGSGVPSRFSGSKDASANAGILLISGLQSDDEADYYCMIWHNNACFFGGGTRLTV | 0.000115 | 22.9 | – |
| NHP-Comp_MPER-GT10v55_W21-03 (antibody, V domains shown) VH: QMQLQESGPGLVKPSETLPLTCAVSGASISSNFWSWIRQAPGMGLEWIGRIYGNGGSTDYNPSLKSRVTISIDTSKNQFSLKLSSVTAADTAVYFCASSFLFRFDVWGPGVLVTVSS VL: QSVLTQPPSASGAPGQSVTISCSGSSSNIGGNHVYWYQQLPGTAPKLLIYYSNQRPSGVPDRFSGSKSGTSASLAITGLRSEDEADYYCAAWDDSLSSYIFGAGTRLTV | 0.0108 | – | – |
| NHP-Comp_MPER-GT10v55_W26-06 (antibody, V domains shown) VH: QVQLVQSGAEVKQPGASVKVSCLASGYTFTSYSIHWLRQAHGQRLEWMGWINTATGNPTYTQGFKERFTFSMDTSITTAYLQISSLKTEDTAVYYCARLYRDFWGGYYASSLDVWGRGVLVTVSS VL: SYDLTQPPSVSVSPGQTARITCGGENIGSEPVHWYQQKPPQAPLQVIYSDSERPSGIPERFSGSKSGNTATLTISGVEAGDEADYYCQVWDISSDHPYIFGAGTRLTV | 0.000112 | – | – |
| NHP-Comp_MPER-GT10v55_W26-08 (antibody, V domains shown) VH: QVTLKESGPALVKPTQTLTLTCTFSGFSISTTGTGVGWIRQPPGKALEWLATISWNDSKYYSTSLKSRLTISKDTSKNQVVLTFTNMDPVDTATYSCARVLQPTITTTNRFDVWGPGVLVTVSS VL: SYDLTQPPSVSVSPGQTARITCGGDNIGSKYVHWYQQKPPQAPVLVIYYDTERPSGIPERFSGSKSGNTATLTISGVEAGDEADYYCQVWDSSSDHNVFGSGTKLTV | 0.00218 | – | – |
| MPER-071 (antibody, V domains shown) VH: QVQLVQSGAEVKKPGASVKVSCKASGYTFTSYDINWVRQATGQGLEWMGWMNPNSGNTGYAQKFQGRVTMTRNTSISTAYMELSSLRSEDTAVYYCARGITYYDFWSGYYPTPYYFDYWGQGTLVTVSS VL: not shown | – | – | 6.4 |
| NHP-Comp_MPER-GT10v55_W26-10 (antibody, V domains shown) VH: EVQLVESGGGLAKPGGSLRLSCVASGFRFSNYWMNWVRQTPGKGLEWISVINSGGVITYYADSVKGRFTISRDNSKNTLSLQMNSLRTEDTAVYYCARQSLDWGLDSWGQGVVVTVSS VL: SSELTQDPAVSVALGQTVRITCQGDSLRNHYASWYQQKPGQAPVLVVYGNNNRPSGIPERFSGSRSGNTASLTITGAQVEDEADYYCDSWDSSGTHRVFGGGTRLTV | 0.0746 | – | – |
